doi:10.1101/2021.01.06.425396

Target: T1, tetherin (Bst2), endogenous (human (endogenous in HeLa)), Q10589
T1 chain: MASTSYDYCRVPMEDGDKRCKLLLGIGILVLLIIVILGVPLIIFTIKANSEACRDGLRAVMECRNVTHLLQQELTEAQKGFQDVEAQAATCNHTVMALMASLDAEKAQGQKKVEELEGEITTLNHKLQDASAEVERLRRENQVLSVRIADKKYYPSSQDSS
Experiment: non-reducing SDS-PAGE and Western blot
Details: remark: other sources report otherwise

B1: tetherin (Bst2), endogenous, Q10589 1-161 (natural protein)
chain: T1 chain
stoichiometry N: 2
